In the supplement of paper PMC12764529:
± gives the half width of the 95% confidence interval.

How the values were obtained:
[1] = folding stability dG unfold from chymotrypsin proteolysis; higher = more stable
Method in brief: (§1)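 Sequencing followed digestion of designed mini-proteins with trypsin and chymotrypsin, each at 11 concentrations in threefold dilutions together with a no-protease condition. The mini-proteins were under 80 residues, had no cysteine, sat in a PA-tagged cDNA display construct, and were kept only if AlphaFold2 dimer inter-PAE was above 15. From the counts, Bayesian fitting gave K50, and unfolding free energy was derived against a sequence-predicted unfolded-state K50 and a shared folded-state K50, per protease or combined.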

[2] = folding stability dG unfold (combined trypsin and chymotrypsin); higher = more stable
Method in brief: as §1

[3] = folding stability dG unfold from trypsin proteolysis; higher = more stable
Method in brief: as §1

| Sequence | folding stability dG unfold [1] [kcal/mol] | folding stability dG unfold [2] [kcal/mol] | folding stability dG unfold [3] [kcal/mol] |
| --- | --- | --- | --- |
| SAGGSAGGSAGGKPEIKLVEVENEDGSKLIKIEVNGKTIIIENVKTEEELRELLKKLGIESAGGSAGGSAGG [r7_91_TrROS_Hall] | 2.66 ± 0.17 | 2.64 ± 0.25 | 2.08 ± 0.14 |
| SAGGSAGGSAGGKPFKVLSVEPLEIGDKKYLRVRFEDGRVYEFPVSFDFGPDGNNVLPVESAGGSAGGSAGG [r7_931_TrMRF] | 2.59 ± 0.045 | 2.37 ± 0.043 | 1.93 ± 0.041 |
| SAGGSAGGSAGGKPITIKLEETGETATIDEDNGIITITNKDGSKYQITFKDGKLIIKKISAGGSAGGSAGGS [r10_568_TrROS_Hall] | 3.1 ± 0.056 | 2.79 ± 0.097 | 1.99 ± 0.076 |
| SAGGSAGGSAGGKPKKVVIYIELTPEQEEAIKKGKSLEEVVEELIKEAEKKGLEVEIVGSAGGSAGGSAGGS [r10_890_TrROS_Hall] | 1.93 ± 0.067 | 1.62 ± 0.14 | 1.2 ± 0.029 |
| SAGGSAGGSAGGKPKPIKIEVYYDEKTGKLLVKVTLPNGKPVTLEFDDIGDIDEVKKAAGSAGGSAGGSAGG [r7_41_TrMRF] | 2.97 ± 0.16 | 2.44 ± 0.18 | 1.36 ± 0.092 |
| SAGGSAGGSAGGKPKTIRIKVYNEETGEVVTLEFPEGMSLEEVKKLLEALPNLKVVEIEPSAGGSAGGSAGG [r7_624_TrROS_Hall] | 3.62 ± 0.11 | 4.45 ± 0.24 | 4.79 ± 0.41 |
| SAGGSAGGSAGGKPKVILLEGIKKIEVKDGKVTIEADEPVLLVIDEDGNVHIYRLPKEDLSAGGSAGGSAGG [r7_29_TrROS_Hall] | 1.38 ± 0.099 | 1.35 ± 0.11 | 1.03 ± 0.07 |
| SAGGSAGGSAGGKPTITITVELEDGYKATFEYNEETDKITVKIFNKNGELVEEFEFEIKSAGGSAGGSAGGS [r10_1044_TrROS_Hall] | 3.24 ± 0.21 | 2.87 ± 0.21 | 1.81 ± 0.12 |
| SAGGSAGGSAGGKPYIITLPNMKREVVFENSALVEFEDGSVIAAFENNVIVFFPVPEDALSAGGSAGGSAGG [r7_29_TrMRF] | 0.786 ± 0.093 | 0.578 ± 0.12 | 0.121 ± 0.042 |
| SAGGSAGGSAGGKPYVIVPVTVRFTIDIPKDHPLLKELDINPEDVKIEFEFSFLGEVPASAGGSAGGSAGGS [r10_82_TrMRF] | 2.97 ± 0.089 | 2.95 ± 0.12 | 2.66 ± 0.096 |
| SAGGSAGGSAGGKTIVIEVKEEDIEEIIEAAKKAGADEVIIYNKKTNKKYKIKDGKIEPVSAGGSAGGSAGG [r7_564_TrROS_Hall] | 2.02 ± 0.045 | 1.81 ± 0.1 | 1.34 ± 0.032 |
| SAGGSAGGSAGGKTIVLLDEETNELVTIEIDEETGEVKITVVRLKDGKLETKTETIKLPSAGGSAGGSAGGS [r10_756_TrROS_Hall] | 2.23 ± 0.21 | 2.07 ± 0.19 | 1.93 ± 0.091 |
| SAGGSAGGSAGGKTLKLTLTLKVEVKETVTTTTADGTTEERPVKEVEVKLTATIDLSDLSAGGSAGGSAGGS [r10_355_TrROS_Hall] | 4.38 ± 0.2 | 4 ± 0.3 | 3.04 ± 0.24 |
| SAGGSAGGSAGGKTVVLFVDPKTKKVYILYPDGKIETLSPEELKNKPIIVKPVKLHPKAGSAGGSAGGSAGG [r7_98_TrMRF] | 1.86 ± 0.053 | 1.56 ± 0.053 | 0.817 ± 0.024 |
| SAGGSAGGSAGGKTYTAEELRKKLPPGAVIRLKNGKKYEIKEGDKIKKGDKIEIVPKKDLSAGGSAGGSAGG [r7_507_TrROS_Hall] | 0.369 ± 0.14 | 0.18 ± 0.13 | -0.344 ± 0.32 |
| SAGGSAGGSAGGKVGPGTTVTIVEVEVVGSKINPLGLVTTDFVVKKVEVVEVEKGADLKSAGGSAGGSAGGS [r10_826_JUSTAS] | -0.775 ± 0.41 | 0.0651 ± 0.12 | 0.487 ± 0.041 |
| SAGGSAGGSAGGKVHPDQPVKLRLTFTVSGVYYDENKPRVETKPVTVEFTALAPDEDALSAGGSAGGSAGGS [r10_745_TrMRF] | 0.208 ± 0.17 | 0.185 ± 0.07 | 0.0543 ± 0.12 |
| SAGGSAGGSAGGKVIDSEEFRNNFPSGGVLVDNNGNLYLVGNNYPIDPNQPFLYVSPDEISAGGSAGGSAGG [r7_507_TrMRF] | 1.56 ± 0.17 | 1.23 ± 0.22 | 0.959 ± 0.086 |
| SAGGSAGGSAGGKVIVKEITINEDGTVTIKGEIFDENGELIAEAEFKFRLGDGGPIEFESAGGSAGGSAGGS [r10_484_TrMRF] | 2.462 ± 0.021 | 2.3 ± 0.16 | 2.18 ± 0.18 |
| SAGGSAGGSAGGKVTKVILYPLPGGKVRLIIYGDDGKPYFFETSFEDLKNFPNIPFIILPSAGGSAGGSAGG [r7_238_TrMRF] | 2.27 ± 0.049 | 2.11 ± 0.073 | 2.19 ± 0.069 |
| SAGGSAGGSAGGKYKIKEIKVEEVDGKKYVKLVIYDKNGKPVKTIVMSLEELKKLPPELLSAGGSAGGSAGG [r7_263_TrROS_Hall] | 2.37 ± 0.12 | 1.89 ± 0.22 | 1.55 ± 0.041 |

| Sequence | folding stability dG unfold [1] [kcal/mol] | folding stability dG unfold [2] [kcal/mol] | folding stability dG unfold [3] [kcal/mol] |
| --- | --- | --- | --- |
| SAGGSAGGSAGGLGLDLPVFPVKTTTSSSTVPLPNGQTVTVTTTTTTFPGSSSTTTTTTGSAGGSAGGSAGG [r17_59_JUSTAS] | 1.46 ± 0.037 | 1.31 ± 0.037 | 1.02 ± 0.031 |
| SAGGSAGGSAGGLGPDEKPKVKYLALIYDPETGEVTVVPADKLDKVLKETDASVSLFPVSAGGSAGGSAGGS [r10_1121_TrMRF] | 0.401 ± 0.1 | 0.565 ± 0.2 | 0.351 ± 0.1 |
| SAGGSAGGSAGGLKPGEKLVFKTETKTLKLKAKVFNKDTGEEFEVEVELTVTRIEVYPLSAGGSAGGSAGGS [r10_1116_TrROS_Hall] | 4.96 ± 0.22 | 4.79 ± 0.33 | 3.04 ± 0.31 |
| SAGGSAGGSAGGLPPGDKLKPVASWPIWAMFPVTYKGPDGELPFNIMIPIRIEIWKPDDSAGGSAGGSAGGS [r10_758_TrROS] | 2.674 ± 0.022 | 2.49 ± 0.1 | 2.23 ± 0.087 |
| SAGGSAGGSAGGMATTTTKIEIYPGTGKVKTTTTVTDPSTGTTTTTTTTEETSLEELTSSAGGSAGGSAGGS [r10_173_JUSTAS] | 0.657 ± 0.082 | 0.345 ± 0.13 | -0.0031 ± 0.05 |
| SAGGSAGGSAGGMEEIRELLEKAKKEGLESITVTVNDPAEATEVRAYAEEKGIPVTINASAGGSAGGSAGGS [r10_307_JUSTAS] | -1.01 ± 0.56 | -0.0348 ± 0.16 | 0.415 ± 0.048 |
| SAGGSAGGSAGGMEFELEDGGYVKVELELSEDGELVARVEFFNENGEPVAEIEVPLEEILSAGGSAGGSAGG [r7_660_TrMRF] | 1.76 ± 0.062 | 1.76 ± 0.13 | 1.63 ± 0.12 |
| SAGGSAGGSAGGMEIEFEKAKFEIEEIDPEKGKIKVKFPGLEKEFEIEFDKKGKIVKISGSAGGSAGGSAGG [r7_553_TrMRF] | 0.959 ± 0.036 | 0.612 ± 0.12 | 0.228 ± 0.057 |
| SAGGSAGGSAGGMEVEYNPEELSPESEVTITVTLPGGEKVELKAKIYTNPDGSLSYELESAGGSAGGSAGGS [r10_390_JUSTAS] | 1.58 ± 0.035 | 1.3 ± 0.053 | 0.697 ± 0.047 |
| SAGGSAGGSAGGMEVKVEEFVENGKPVVREFYPDSIKVTTYTFDENGNVTEKKEYVIPKESAGGSAGGSAGG [r7_722_JUSTAS] | 0.92 ± 0.15 | 0.691 ± 0.17 | 0.413 ± 0.061 |
| SAGGSAGGSAGGMEVVIPLDKNERYLAYVLGEPKFVEFDPEKGYLVIPNTPPENVIVVKYSAGGSAGGSAGG [r7_200_TrMRF] | 0.418 ± 0.15 | 0.325 ± 0.1 | 0.248 ± 0.05 |
| SAGGSAGGSAGGMFKTYDSLEDVKKNETGDGAKGKVFVVAPIPELENAVLVLVEIRPPDSAGGSAGGSAGGS [r10_126_TrMRF] | 0.504 ± 0.11 | 0.231 ± 0.088 | -0.219 ± 0.069 |
| SAGGSAGGSAGGMFLIKLPNGKVLLFESEEEAKAALEELTGKPVDLENLEIVPLPEEELSAGGSAGGSAGGS [r10_62_TrROS_Hall] | 3.14 ± 0.045 | 3.3 ± 0.11 | 3.65 ± 0.14 |
| SAGGSAGGSAGGMFYIKNEKGEVFPFTSLEEFLKQLEEKTGKPVKLNNIVIYPAAPHSLSAGGSAGGSAGGS [r10_62_TrMRF] | 1.81 ± 0.15 | 1.7 ± 0.27 | 1.04 ± 0.042 |
| SAGGSAGGSAGGMGINVTVSEEVSVLPDPSVVRVTTTTKTPDGTTTVTEEVIPGPEELESAGGSAGGSAGGS [r10_1221_JUSTAS] | 1.47 ± 0.099 | 1.2 ± 0.075 | -0.15 ± 0.045 |
| SAGGSAGGSAGGMIIEKKTVEKLPDGTVKVTVSIITVNDDGKTETIKTETKIIPLSELLGSAGGSAGGSAGG [r7_521_JUSTAS] | 2.25 ± 0.1 | 2.18 ± 0.11 | 2.31 ± 0.11 |
| SAGGSAGGSAGGMILRDPNRDIWTADFPDSSGNLVSSREFPPGEIEEVLAEGNVSAEVLPSAGGSAGGSAGG [r11_159_JUSTAS] | 0.297 ± 0.059 | 0.315 ± 0.043 | 0.362 ± 0.015 |
| SAGGSAGGSAGGMIVLKDPDPARLEARAEELRAELEAAGRELPPDVEIEVLEAEPDPALLSAGGSAGGSAGG [r7_965_JUSTAS] | -0.568 ± 0.37 | -0.279 ± 0.29 | -0.194 ± 0.21 |
| SAGGSAGGSAGGMKIKITVEVFDPNTGKVLKTEEFTSLEEAEKKVKEEDPNKVKVTVKEESAGGSAGGSAGG [r7_201_JUSTAS] | 1.71 ± 0.032 | 1.33 ± 0.077 | 0.805 ± 0.056 |
| SAGGSAGGSAGGMKILSVEEDAPPDYVTVTELTVDSEGNKKIITTTIPIEPPPEVSPSLISAGGSAGGSAGG [r7_873_JUSTAS] | 1.45 ± 0.1 | 1.24 ± 0.17 | 1.15 ± 0.039 |
| SAGGSAGGSAGGMKIVFLGKKALIENENGEVTEIPVGSLEEFEKLAEAFPDYEAVPAVPSAGGSAGGSAGGS [r10_1211_TrMRF] | 1.5 ± 0.029 | 1.31 ± 0.051 | 0.888 ± 0.025 |
